# Measurements as given in doi:10.1101/375832, “A Ubiquitin-Binding Domain that Does Not Bind Ubiquitin” (bioRxiv, 2018).
# Changes are numbered by the printed parent chain.
# T1: FLAG-SMARCAD1, full-length, wild type, recombinant from E. coli (human, UniProt Q9H4L7 1-1026)
# T1 construct: SMARCAD1, human, full-length; Cloned in pET28a-SUMO; source: E. coli BL-21 CodonPlus (DE3)-RIL, purified (HisTrap, Heparin, ProSwift SAX-1S)
# T1 sequence (looked up): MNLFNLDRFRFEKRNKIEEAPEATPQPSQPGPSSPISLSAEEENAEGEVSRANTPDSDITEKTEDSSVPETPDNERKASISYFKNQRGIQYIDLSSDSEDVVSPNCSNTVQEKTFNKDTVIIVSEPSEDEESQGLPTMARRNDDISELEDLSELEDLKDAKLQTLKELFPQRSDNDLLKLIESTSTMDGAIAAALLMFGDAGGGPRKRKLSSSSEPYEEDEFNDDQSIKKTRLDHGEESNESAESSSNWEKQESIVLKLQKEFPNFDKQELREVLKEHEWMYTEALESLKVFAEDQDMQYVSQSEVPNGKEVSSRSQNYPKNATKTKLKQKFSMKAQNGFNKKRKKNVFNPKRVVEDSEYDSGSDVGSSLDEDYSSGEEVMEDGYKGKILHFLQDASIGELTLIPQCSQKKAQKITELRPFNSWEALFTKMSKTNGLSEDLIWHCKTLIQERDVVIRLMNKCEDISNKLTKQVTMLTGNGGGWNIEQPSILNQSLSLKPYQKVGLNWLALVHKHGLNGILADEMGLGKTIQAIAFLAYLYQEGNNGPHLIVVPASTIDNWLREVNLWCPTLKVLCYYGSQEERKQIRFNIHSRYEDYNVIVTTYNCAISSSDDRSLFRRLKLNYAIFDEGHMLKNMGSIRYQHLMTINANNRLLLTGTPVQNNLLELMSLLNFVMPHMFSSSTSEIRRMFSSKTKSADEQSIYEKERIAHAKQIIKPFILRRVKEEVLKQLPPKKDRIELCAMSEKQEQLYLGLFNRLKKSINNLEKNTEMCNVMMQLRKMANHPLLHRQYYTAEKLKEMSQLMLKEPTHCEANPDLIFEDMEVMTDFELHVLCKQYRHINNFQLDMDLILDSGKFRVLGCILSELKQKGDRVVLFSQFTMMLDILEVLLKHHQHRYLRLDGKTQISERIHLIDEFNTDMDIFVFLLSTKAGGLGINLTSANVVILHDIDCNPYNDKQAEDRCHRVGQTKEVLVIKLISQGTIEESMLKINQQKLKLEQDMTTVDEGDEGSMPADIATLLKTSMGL
# B1: FLAG-tagged SMARCAD1 CUE1,2 fragment (S95-N347), wild type (domain or fragment, human, UniProt Q9H4L7 95-347, looked up)
# chain: SSDSEDVVSPNCSNTVQEKTFNKDTVIIVSEPSEDEESQGLPTMARRNDDISELEDLSELEDLKDAKLQTLKELFPQRSDNDLLKLIESTSTMDGAIAAALLMFGDAGGGPRKRKLSSSSEPYEEDEFNDDQSIKKTRLDHGEESNESAESSSNWEKQESIVLKLQKEFPNFDKQELREVLKEHEWMYTEALESLKVFAEDQDMQYVSQSEVPNGKEVSSRSQNYPKNATKTKLKQKFSMKAQNGFNKKRKKN
# notes: SMARCAD1, human, residues S95-N347 encompassing both CUE domains; source: E. coli BL-21 CodonPlus (DE3)-RIL, purified (Ni-NTA, Mono Q if required)
# B2: SMARCAD1 CUE1 fragment (S95-E237), wild type (domain or fragment, human, UniProt Q9H4L7 95-237, looked up)
# chain: SSDSEDVVSPNCSNTVQEKTFNKDTVIIVSEPSEDEESQGLPTMARRNDDISELEDLSELEDLKDAKLQTLKELFPQRSDNDLLKLIESTSTMDGAIAAALLMFGDAGGGPRKRKLSSSSEPYEEDEFNDDQSIKKTRLDHGE
# notes: SMARCAD1, human, residues S95-E237 spanning only the first CUE domain; also called wild type CUE1 fragment; source: E. coli BL-21 CodonPlus (DE3)-RIL, purified (Ni-NTA, Mono Q if required)
# B3: FLAG-tagged SMARCAD1 CUE1,2 fragment P170A (domain or fragment, human, UniProt Q9H4L7 95-347, looked up)
# chain: B1 chain with P76A
# notes: SMARCAD1, human, CUE1,2 fragment S95-N347; source: E. coli, purified; construct generated by GenScript
# B4: FLAG-tagged SMARCAD1 CUE1,2 fragment L195A (domain or fragment, human, UniProt Q9H4L7 95-347, looked up)
# chain: B1 chain with L101A
# notes: as for B3
# B5: FLAG-tagged SMARCAD1 CUE1,2 fragment L196A (domain or fragment, human, UniProt Q9H4L7 95-347, looked up)
# chain: B1 chain with L102A
# notes: as for B3
# B6: FLAG-tagged SMARCAD1 CUE1,2 fragment Q171A (domain or fragment, human, UniProt Q9H4L7 95-347, looked up)
# chain: B1 chain with Q77A
# notes: as for B3
# B7: FLAG-tagged SMARCAD1 CUE1,2 fragment E167A (domain or fragment, human, UniProt Q9H4L7 95-347, looked up)
# chain: B1 chain with E73A
# notes: as for B3
# B8: FLAG-tagged SMARCAD1 CUE1,2 fragment D188A (domain or fragment, human, UniProt Q9H4L7 95-347, looked up)
# chain: B1 chain with D94A
# notes: as for B3
# B9: FLAG-tagged SMARCAD1 CUE1,2 fragment Δ200-230 (domain or fragment, human, UniProt Q9H4L7 95-347, looked up)
# chain: SSDSEDVVSPNCSNTVQEKTFNKDTVIIVSEPSEDEESQGLPTMARRNDDISELEDLSELEDLKDAKLQTLKELFPQRSDNDLLKLIESTSTMDGAIAAALLMFGTRLDHGEESNESAESSSNWEKQESIVLKLQKEFPNFDKQELREVLKEHEWMYTEALESLKVFAEDQDMQYVSQSEVPNGKEVSSRSQNYPKNATKTKLKQKFSMKAQNGFNKKRKKN
# notes: SMARCAD1, human, CUE1,2 fragment S95-N347 with residues 200-230 deleted; source: E. coli, purified; construct generated by GenScript
# B10: KAP1, full-length, recombinant from E. coli (HA-KAP1) (natural protein, human, UniProt Q13263 1-835, looked up)
# chain: MAASAAAASAAAASAASGSPGPGEGSAGGEKRSTAPSAAASASASAAASSPAGGGAEALELLEHCGVCRERLRPEREPRLLPCLHSACSACLGPAAPAAANSSGDGGAAGDGTVVDCPVCKQQCFSKDIVENYFMRDSGSKAATDAQDANQCCTSCEDNAPATSYCVECSEPLCETCVEAHQRVKYTKDHTVRSTGPAKSRDGERTVYCNVHKHEPLVLFCESCDTLTCRDCQLNAHKDHQYQFLEDAVRNQRKLLASLVKRLGDKHATLQKSTKEVRSSIRQVSDVQKRVQVDVKMAILQIMKELNKRGRVLVNDAQKVTEGQQERLERQHWTMTKIQKHQEHILRFASWALESDNNTALLLSKKLIYFQLHRALKMIVDPVEPHGEMKFQWDLNAWTKSAEAFGKIVAERPGTNSTGPAPMAPPRAPGPLSKQGSGSSQPMEVQEGYGFGSGDDPYSSAEPHVSGVKRSRSGEGEVSGLMRKVPRVSLERLDLDLTADSQPPVFKVFPGSTTEDYNLIVIERGAAAAATGQPGTAPAGTPGAPPLAGMAIVKEEETEAAIGAPPTATEGPETKPVLMALAEGPGAEGPRLASPSGSTSSGLEVVAPEGTSAPGGGPGTLDDSATICRVCQKPGDLVMCNQCEFCFHLDCHLPALQDVPGEEWSCSLCHVLPDLKEEDGSLSLDGADSTGVVAKLSPANQRKCERVLLALFCHEPCRPLHQLATDSTFSLDQPGGTLDLTLIRARLQEKLSPPYSSPQEFAQDVGRMFKQFNKLTEDKADVQSIIGLQRFFETRMNEAFGDTKFSAVLVEPPPMSLPGAGLSSQELSGGPGDGP
# notes: KAP1 (TRIM28), human, full-length; also called TRIM28; TIF1β; source: E. coli BL-21 CodonPlus (DE3)-RP, purified (HisTrap, Heparin, Sephacryl S-400 gel filtration)
# Legend:
# Conditions in all cases: both partners purified
# [1] = biological target: T2, KAP1 RBCC (S33-K434) E343A (human, UniProt Q13263 33-434, E343A); assay: co-IP; purified SMARCAD1 fragments (CUE1,2, CUE1) and KAP1 RBCC, 9.6μg of each in a 240μL binding reaction, 1 hour at 4°C; immunoprecipitated with anti-FLAG M2 affinity gel for 3 hours at 4°C
# T2 construct: KAP1 (TRIM28), human, RBCC fragment S33-K434; source: E. coli, purified; construct generated by GenScript
# T2 sequence (Q13263 33-434 E343A): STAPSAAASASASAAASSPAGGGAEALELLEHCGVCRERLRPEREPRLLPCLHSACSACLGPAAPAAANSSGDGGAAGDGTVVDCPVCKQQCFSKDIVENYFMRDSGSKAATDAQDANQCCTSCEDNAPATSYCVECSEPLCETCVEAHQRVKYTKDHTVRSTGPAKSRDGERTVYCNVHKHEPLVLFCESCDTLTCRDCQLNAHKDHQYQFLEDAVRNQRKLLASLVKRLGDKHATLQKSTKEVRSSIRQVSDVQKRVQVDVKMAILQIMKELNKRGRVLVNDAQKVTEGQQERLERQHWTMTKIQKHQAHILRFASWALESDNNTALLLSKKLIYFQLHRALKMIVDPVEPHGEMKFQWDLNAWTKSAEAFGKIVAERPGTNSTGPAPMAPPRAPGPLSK
# [2] = biological target: T3, KAP1 RBCC (S33-K434), purified (human, UniProt Q13263 33-434); assay: as above
# T3 construct: KAP1 (TRIM28), human, residues S33-K434, RBCC domain; also called KAP1 S33-K434; Fragment 1; source: E. coli BL-21 CodonPlus (DE3)-RP, purified (Ni-NTA, Mono Q)
# [3] = biological target: T4, KAP1 RBCC (S33-K434) I379A (human, UniProt Q13263 33-434, I379A); assay: as above
# T4 construct: KAP1 (TRIM28), human, RBCC fragment S33-K434; source: E. coli, purified; construct generated by GenScript
# T4 sequence (Q13263 33-434 I379A): as the sequence (Q13263 33-434 E343A) above, with A311E, I347A counted along it
# [4] = biological target: T5, KAP1 RBCC (S33-K434) M335A (human, UniProt Q13263 33-434, M335A); assay: as above
# T5 construct: KAP1 (TRIM28), human, RBCC fragment S33-K434; source: E. coli, purified; construct generated by GenScript
# T5 sequence (Q13263 33-434 M335A): as the sequence (Q13263 33-434 E343A) above, with M303A, A311E counted along it
# [5] = biological target: T6, KAP1 RBCC (S33-K434) V380A (human, UniProt Q13263 33-434, V380A); assay: as above
# T6 construct: KAP1 (TRIM28), human, RBCC fragment S33-K434; source: E. coli, purified; construct generated by GenScript
# T6 sequence (Q13263 33-434 V380A): as the sequence (Q13263 33-434 E343A) above, with A311E, V348A counted along it
# [6] = biological target: T7, KAP1 RBCC (S33-K434) L376A (human, UniProt Q13263 33-434, L376A); assay: as above
# T7 construct: KAP1 (TRIM28), human, RBCC fragment S33-K434; source: E. coli, purified; construct generated by GenScript
# T7 sequence (Q13263 33-434 L376A): as the sequence (Q13263 33-434 E343A) above, with A311E, L344A counted along it
# [7] = biological target: T1, FLAG-SMARCAD1, full-length, wild type, …; assay: co-IP; purified full-length SMARCAD1 and KAP1 from E. coli, 7μg of each in 280μL SK binding buffer, 200mM NaCl, 4°C; immunoprecipitated overnight with anti-FLAG M2 affinity gel
Binder,binding result [2],further results
B1,binds,binding result [1]: binds; binding result [3]: binds; binding result [4]: binds; binding result [5]: binds; binding result [6]: binds
B2,binds,–
B3,binds,–
B4,binds,–
B5,binds,–
B6,binds,–
B7,binds,–
B8,binds,–
B9,binds,–
B10,–,binding result [7]: binds
